Source: paper PMC12687561 (2025)

T1: HHV-6B Putative OX-2 membrane glycoprotein homolog (U85) peptide on HLA-DRA*01:01 / HLA-DRB1*03:01 (human)
T1 peptide: KINNLDVDSKLYFHIKH

T2: HHV-6B Large structural phosphoprotein (U11) peptide on HLA-DRA*01:01 / HLA-DRB1*03:01 (human)
T2 peptide: SLPSISIDTKRPSADL


Tests used:
[1] = target: T1, HHV-6B Putative OX-2 membrane …; test: multimer staining
[2] = target: T2, HHV-6B Large structural phosphoprotein …; test: multimer staining

Binder	binding result [1]	binding result [2]
U85.2 (TCR) alpha TRAV13-1 TRAJ29 CDR3: CAATNSGNTPLVF beta TRBV20-1 TRBJ1-5 CDR3: CSARRGGGPQHF	recognises	–
U11.1 (TCR) alpha TRAV12-1 TRAJ49 CDR3: CVVNIFTGNQFYF beta TRBV19 TRBJ1-4 CDR3: CASSFRGGEKLFF	–	recognises
U85.1 (TCR) alpha TRAV13-1 TRAJ29 CDR3: CAASNSGNTPLVF beta TRBV20-1 TRBJ1-6 CDR3: CGNRVGNSPLHF	recognises	–
